Measurements: article PMC6599204, “DNA requirement in FANCD2 deubiquitination by USP1-UAF1-RAD51AP1 in the Fanconi anemia DNA damage response” (Nature Communications, 2019)

Target: T1, FANCI (human, UniProt Q9NVI1 1-1328)
T1 construct: human FANCI
T1 sequence (looked up): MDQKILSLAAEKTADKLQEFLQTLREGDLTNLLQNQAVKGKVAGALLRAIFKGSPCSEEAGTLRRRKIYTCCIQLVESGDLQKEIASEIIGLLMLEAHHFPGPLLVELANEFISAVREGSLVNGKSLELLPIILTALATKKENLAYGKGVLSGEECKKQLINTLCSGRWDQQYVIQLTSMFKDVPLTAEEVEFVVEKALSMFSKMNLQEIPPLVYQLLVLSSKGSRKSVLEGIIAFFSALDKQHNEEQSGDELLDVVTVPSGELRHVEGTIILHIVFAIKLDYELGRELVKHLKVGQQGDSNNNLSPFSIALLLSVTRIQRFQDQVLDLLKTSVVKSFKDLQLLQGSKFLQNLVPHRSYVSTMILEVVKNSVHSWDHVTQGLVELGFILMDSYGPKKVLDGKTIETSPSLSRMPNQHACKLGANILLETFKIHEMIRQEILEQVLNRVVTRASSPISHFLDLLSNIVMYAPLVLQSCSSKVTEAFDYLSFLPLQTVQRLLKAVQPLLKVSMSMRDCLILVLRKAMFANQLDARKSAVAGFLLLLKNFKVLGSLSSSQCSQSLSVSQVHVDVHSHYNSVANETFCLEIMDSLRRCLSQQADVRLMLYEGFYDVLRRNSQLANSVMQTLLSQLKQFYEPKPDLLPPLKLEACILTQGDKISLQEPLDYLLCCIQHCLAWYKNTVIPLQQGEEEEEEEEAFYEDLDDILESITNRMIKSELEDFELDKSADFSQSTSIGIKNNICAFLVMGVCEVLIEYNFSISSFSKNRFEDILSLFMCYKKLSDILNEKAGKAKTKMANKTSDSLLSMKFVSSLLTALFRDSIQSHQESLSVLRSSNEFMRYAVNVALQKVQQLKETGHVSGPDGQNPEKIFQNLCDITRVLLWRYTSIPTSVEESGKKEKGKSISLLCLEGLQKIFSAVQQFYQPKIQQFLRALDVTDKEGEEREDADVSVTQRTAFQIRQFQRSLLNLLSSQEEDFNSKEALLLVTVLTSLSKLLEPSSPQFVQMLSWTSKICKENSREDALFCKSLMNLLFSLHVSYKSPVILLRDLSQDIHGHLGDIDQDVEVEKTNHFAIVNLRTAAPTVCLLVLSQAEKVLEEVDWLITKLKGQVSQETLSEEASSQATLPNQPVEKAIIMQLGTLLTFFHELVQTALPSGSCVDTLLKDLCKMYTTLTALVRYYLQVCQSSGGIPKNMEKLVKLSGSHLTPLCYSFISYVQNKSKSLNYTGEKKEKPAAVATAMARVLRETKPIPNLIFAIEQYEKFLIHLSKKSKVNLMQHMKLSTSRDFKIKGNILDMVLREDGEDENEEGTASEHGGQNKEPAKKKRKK
Assay: pull-down; same procedure as for RAD51AP1, but Strep-Tactin resin captured the complexes via the Strep tag on UAF1; USP1 or FANCI as the other protein; SDS-PAGE, Coomassie Blue
Settings: both partners purified

B1: UAF1 (natural protein)
chain: not shown
notes: human UAF1 (isoform 1), full-length; also called UAF1 (WT); UAF1 (FL); not shown: Strep-II, C-terminal, kept
- binding result: binds
